Consider two molecules from US20260317389 (published 2026).

One assay addresses rhPD-L1 (human, UniProt Q9NZQ7). The experiment in a line: ELISA. Background: In an ELISA, binding on a coated surface is turned into a signal by an enzyme label.
The target in assay [1] is T1, PD-L1 (human, UniProt Q9NZQ7). The experiment in a line: competition, FACS blocking of biotin-PD-1, 4C.
The target in assay [2] is T1, PD-L1. Kind of assay: FACS, 4C. (Flow cytometry measures light scatter and fluorescence of single cells or particles in a stream.)
The target in the next assay is SSTR4 (human, UniProt P31391). The experiment in a line: FACS, membrane proteome array titration.
Chain of SSTR4 (P31391 whole entry): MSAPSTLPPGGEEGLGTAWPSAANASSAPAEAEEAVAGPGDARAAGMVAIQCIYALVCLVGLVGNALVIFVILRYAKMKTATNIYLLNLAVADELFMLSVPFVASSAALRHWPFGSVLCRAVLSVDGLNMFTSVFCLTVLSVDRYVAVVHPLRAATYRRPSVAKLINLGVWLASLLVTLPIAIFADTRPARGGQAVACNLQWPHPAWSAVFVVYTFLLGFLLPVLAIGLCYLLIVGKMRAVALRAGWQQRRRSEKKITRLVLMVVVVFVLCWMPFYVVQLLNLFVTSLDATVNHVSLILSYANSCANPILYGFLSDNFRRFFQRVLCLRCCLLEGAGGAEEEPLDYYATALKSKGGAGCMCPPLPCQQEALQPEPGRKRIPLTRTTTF

T1 sequence (Q9NZQ7 19-238): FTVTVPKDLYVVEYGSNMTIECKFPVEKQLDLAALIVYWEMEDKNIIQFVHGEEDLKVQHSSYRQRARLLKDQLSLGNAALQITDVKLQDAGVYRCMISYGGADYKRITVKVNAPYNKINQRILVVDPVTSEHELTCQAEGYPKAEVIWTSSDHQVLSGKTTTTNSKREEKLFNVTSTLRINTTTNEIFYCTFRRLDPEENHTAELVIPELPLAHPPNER
Chain of rhPD-L1 (Q9NZQ7 19-238): as above

B1: TCRC-L2 (antibody, V domains shown)
VH: EVQLQESGPSLVKPSQTLSLTCSVTGDSITSGYWNWIRKFPENKLEYMGYISFTGSTYYNPSLKSRISITRDTSKNQYYLQLNSVTTEDTATYYCARKREWILHPMDYWGQGTSVTVSS
VL: ENVLTQSPAIMSASPGEKVTMTCSASSSVSYMHWYQQKSLTSPKLWIYDTSKLASGVPGRFSGSGSGNFYSLTISSMEAEDVATYYCFQESGYPLTFGAGTKLELK
By Kd is commonly meant the equilibrium constant for the complex coming apart. A high value points to lower affinity. By EC50 is commonly meant the concentration that produces a half-maximal response. A high value points to a need for much substance. As for B1, the Kd in the assay with rhPD-L1 was determined as 0.04 µg/mL; with PD-L1 [2], 0.074 µg/mL. This molecule also yielded an EC50 with PD-L1 [1] of 0.074 µg/mL.

B2: TCRC-L8 (antibody, V domains shown)
VH: QVQLQESGPGLVKPSETLSLTCTVSGDSITSGYWNWIRQPPGKGLEYMGYISFTGSTYYNPSLKSRVTISVDTSKNQFSLKLSSVTAADTAVYYCARKREWILHPMDYWGQGTLVTVSS
VL: AIQLTQSPSSLSASVGDRVTITCSASSSVSYMHWYQQKPGKAPKLWIYDTSKLASGVPSRFSGSGSGTDFTLTISSLQPEDFATYYCFQESGYPLTFGGGTKLTVL
Take B2: the Kd with rhPD-L1 stood at 0.036 µg/mL; in the assay with PD-L1 [2], 0.058 µg/mL. Besides, it took 0.058 µg/mL to reach a half-maximal effect with PD-L1 [1] (EC50). In addition, in the assay with SSTR4, the binding result is listed as “no binding”.
